According to US20250382376A1 (FUDAN UNIVERSITY, published 2025):

T1: extracellular domain of human CD73 protein, C-terminus polyhistidine-tagged (human, UniProt P21589 27-547)
T1 construct: also the immunogen; also called CD73-ECD; human CD73-ECD
T1 sequence: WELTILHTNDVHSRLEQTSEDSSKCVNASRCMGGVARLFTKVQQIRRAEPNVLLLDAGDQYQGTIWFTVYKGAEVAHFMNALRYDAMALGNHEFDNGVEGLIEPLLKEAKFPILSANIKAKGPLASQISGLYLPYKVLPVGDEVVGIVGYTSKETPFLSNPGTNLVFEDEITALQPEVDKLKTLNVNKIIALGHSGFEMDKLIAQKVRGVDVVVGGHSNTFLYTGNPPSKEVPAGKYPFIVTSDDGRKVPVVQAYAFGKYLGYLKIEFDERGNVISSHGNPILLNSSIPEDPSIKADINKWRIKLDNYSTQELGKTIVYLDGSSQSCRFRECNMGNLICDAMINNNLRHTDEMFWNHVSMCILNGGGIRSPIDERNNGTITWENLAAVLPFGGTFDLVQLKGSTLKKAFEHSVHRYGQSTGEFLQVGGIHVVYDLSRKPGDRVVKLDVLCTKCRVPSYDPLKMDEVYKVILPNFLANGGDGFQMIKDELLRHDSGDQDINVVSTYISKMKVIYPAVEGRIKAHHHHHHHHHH

T2: CD73 on the surface of human cells (human, UniProt P21589 27-549)
T2 sequence (looked up): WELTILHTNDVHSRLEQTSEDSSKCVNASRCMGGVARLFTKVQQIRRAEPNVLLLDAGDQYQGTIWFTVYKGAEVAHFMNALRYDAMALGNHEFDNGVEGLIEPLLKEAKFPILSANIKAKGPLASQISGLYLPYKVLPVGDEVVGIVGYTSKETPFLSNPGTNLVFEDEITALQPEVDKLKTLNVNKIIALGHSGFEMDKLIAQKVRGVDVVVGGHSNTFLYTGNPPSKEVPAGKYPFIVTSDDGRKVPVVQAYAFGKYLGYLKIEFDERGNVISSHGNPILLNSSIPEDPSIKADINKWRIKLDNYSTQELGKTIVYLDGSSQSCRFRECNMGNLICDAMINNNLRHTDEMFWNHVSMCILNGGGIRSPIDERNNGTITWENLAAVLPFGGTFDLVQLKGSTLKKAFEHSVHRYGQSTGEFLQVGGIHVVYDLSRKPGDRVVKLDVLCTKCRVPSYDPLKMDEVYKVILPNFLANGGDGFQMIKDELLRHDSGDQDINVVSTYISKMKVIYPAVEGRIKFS


How the values were obtained:
[1] = biological target: T1, extracellular domain of human CD73 …; assay: ELISA on CD73-ECD, 0.8 µL supernatant of antibody expression, first of two readings; PBS 0.19, 0.18
Method: (§1) The CD73 protein extracellular region (CD73-ECD) was diluted to 1 μg/mL using the coating solution, and an ELISA plate was coated at 100 μL/well at 4° C. overnight. Excess antigens were washed away, and the plate was blocked with 1% BSA at room temperature for 2 hours. Then, 5-fold gradient dilutions of each monoclonal antibody were added at 100 μL/well and incubated at room temperature for 1 hour. Unbound antibodies were washed away, and an appropriate concentration of Staphylococcal protein A labeled with horseradish peroxidase was added at 100 μL/well and incubated at room temperature for 0.5 hours. Unbound secondary antibodies were washed away, and TMB color development solution was added to react for about 15 minutes. 1M HCL was added at 50 µL/well to terminate the color development reaction, and then the absorbance was measured at 450 nm and the data was analyzed.
(§2) CD73 antigen ELISA binding affinity test was performed according to the method of Example 3.

[2] = biological target: T1, extracellular domain of human CD73 …; assay: ELISA on CD73-ECD, 4 µL supernatant of antibody expression, first of two readings; PBS 0.19, 0.18
Method: as §1, §2

[3] = biological target: T1, extracellular domain of human CD73 …; assay: ELISA on CD73-ECD, 100 µL supernatant of antibody expression, second of two readings; PBS 0.19, 0.18
[4] = biological target: T1, extracellular domain of human CD73 …; assay: ELISA on CD73-ECD, 20 µL supernatant of antibody expression, second of two readings; PBS 0.19, 0.18
Method: as §1, §2

[5] = biological target: T1, extracellular domain of human CD73 …; assay: ELISA on CD73-ECD, 100 µL supernatant of antibody expression, first of two readings; PBS 0.19, 0.18
Method: as §1, §2

[6] = biological target: T1, extracellular domain of human CD73 …; assay: ELISA on CD73-ECD, 20 µL supernatant of antibody expression, first of two readings; PBS 0.19, 0.18
Method: as §1, §2

[7] = biological target: T1, extracellular domain of human CD73 …; assay: ELISA on CD73-ECD, 0.8 µL supernatant of antibody expression, second of two readings; PBS 0.19, 0.18
Method: as §1, §2

[8] = biological target: T1, extracellular domain of human CD73 …; assay: ELISA on CD73-ECD, 4 µL supernatant of antibody expression, second of two readings; PBS 0.19, 0.18
[9] = biological target: T1, extracellular domain of human CD73 …; assay: ELISA on human CD73-ECD, 1 µL supernatant of transfected HEK293F cells; PBS blank 0.073
Method: as §1
(§3) For the five antibodies from yeast, after transient expression in HEK293F cells, the supernatant was collected after 2 days of continuous culture and ELISA assay was performed using 100 μL, 10 μL, and 1 μL of the supernatant.

[10] = biological target: T1, extracellular domain of human CD73 …; assay: ELISA on human CD73-ECD, 100 µL supernatant of transfected HEK293F cells; PBS blank 0.0675
Method: as §1, §3

[11] = biological target: T1, extracellular domain of human CD73 …; assay: ELISA on human CD73-ECD, 10 µL supernatant of transfected HEK293F cells; PBS blank 0.0615
Method: as §1, §3

[12] = biological target: T2, CD73 on the surface of human cells; assay: cell-based or functional assay

Row | Binder | ELISA reading (not named on the sheet) [1] | ELISA reading (not named on the sheet) [2] | ELISA reading (not named on the sheet) [3] | ELISA reading (not named on the sheet) [4] | ELISA reading (not named on the sheet) [5] | ELISA reading (not named on the sheet) [6] | ELISA reading (not named on the sheet) [7] | ELISA reading (not named on the sheet) [8] | ELISA (OD450) [9] | ELISA (OD450) [10] | ELISA (OD450) [11] | other results
1 | 5-E11 derived antibody 5-E11AS (VHH, not shown: a dimerising Fc or GST) VHH: ALQLVESGGGLVQPGGSLRLSCEVSGFTLDYYNIGWFRQAPGKEREGVSCSSASGGSTYYADSVKGRFTISRDNAKNTVYLQMNSLKPEDTGVYYCAAYRGWHPSLDARVYDYWGQGTEVTVSS | 4.22 | 4.25 | 4.27 | 4.33 | 4.28 | 4.24 | 4.08 | 4.22 |  |  |  | 
2 | 5-E11 derived antibody 5-E11GS (VHH, not shown: a dimerising Fc or GST) VHH: ALQLVESGGGLVQPGGSLRLSCEVSGFTLDYYNIGWFRQAPGKEREGVSCSSGSGGSTYYADSVKGRFTISRDNAKNTVYLQMNSLKPEDTGVYYCAAYRGWHPSLDARVYDYWGQGTEVTVSS | 4.16 | 4.22 | 4.22 | 4.3 | 4.24 | 4.15 | 4.11 | 4.17 |  |  |  | 
3 | 5-E11 derived antibody 5-E11QS (VHH, not shown: a dimerising Fc or GST) VHH: ALQLVESGGGLVQPGGSLRLSCEVSGFTLDYYNIGWFRQAPGKEREGVSCSSQSGGSTYYADSVKGRFTISRDNAKNTVYLQMNSLKPEDTGVYYCAAYRGWHPSLDARVYDYWGQGTEVTVSS | 4.17 | 4.23 | 4.28 | 4.29 | 4.32 | 4.17 | 4.08 | 4.16 |  |  |  | 
4 | chimeric nanobody 3-A3 (Fc fusion, Tested as supernatant of transiently transfected HEK293F cells) VHH: QVQLVESGGGSVQPGGSLRLSCAASGFPLDYYTIGWFRQAPGKELEGVSCISSSDSSPYDADSVKGRFTMSRDNANNTVYLQMNSLKPEDTAVYYCAAQRYYYCSLRANVYDYWGQGTQVTVSS |  |  |  |  |  |  |  |  | 0.605 OD450 | 4.27 OD450 | 2.11 OD450 | 
5 | humanized nanobody-drug conjugate 3D7-HM9-FC1-MMAE (Fc fusion, part only; not given: Fc segment and drug payload, part only, vc-MMAE on cysteines; expected DAR 4 for the dimer) VHH, part: QRQLVESGGGLVQPGGSLRLSCAASGFLLDYYVIGWFRQAPGKEREGVSCISGSDRSTYYADSVKGRFTISRDNAKNTVYLQMSSLRAEDTAVYYCAADPSPVTVQAMCLPRFPVPYWGKGTLVTVSS |  |  |  |  |  |  |  |  |  |  |  | EC50, reversal of the AMP inhibition of human T lymphocyte proliferation [12]: 0.0197 µg/mL
6 | humanized antibody fusion protein 3D7-HM9-ABD (VHH) VHH: QRQLVESGGGLVQPGGSLRLSCAASGFLLDYYVIGWFRQAPGKEREGVSCISGSDRSTYYADSVKGRFTISRDNAKNTVYLQMSSLRAEDTAVYYCAADPSPVTVQAMCLPRFPVPYWGKGTLVTVSS |  |  |  |  |  |  |  |  |  |  |  | EC50, reversal of the AMP inhibition of human T lymphocyte proliferation [12]: 0.0467 µg/mL; IC50, inhibition of the catalytic function of CD73 enzyme on MDA-MB-231 cells [12]: 0.123 µg/mL

Continued, in another order:

Row | ELISA reading (not named on the sheet) [1] | ELISA reading (not named on the sheet) [2] | ELISA reading (not named on the sheet) [3] | ELISA reading (not named on the sheet) [4] | ELISA reading (not named on the sheet) [5] | ELISA reading (not named on the sheet) [6] | ELISA reading (not named on the sheet) [7] | ELISA reading (not named on the sheet) [8] | ELISA (OD450) [9] | ELISA (OD450) [10] | ELISA (OD450) [11] | Binder | other results
7 |  |  |  |  |  |  |  |  | 0.36 OD450 | 4.11 OD450 | 1.61 OD450 | chimeric nanobody 1-E7 (Fc fusion, Tested as supernatant of transiently transfected HEK293F cells) VHH: QVQLVESGGGLVQPGGSLRLSCAASGFTLDYYNIGWFRQAPGKEREGVSCISNSDGSTYYADSVKGRFTISRDNAKNTVYLQMNSLKPEDTAVYYCAAYRGWHPSLDARVYDYWGQGTQVTVSS | 
8 |  |  |  |  |  |  |  |  | 0.254 OD450 | 4.46 OD450 | 1.28 OD450 | chimeric nanobody 2-B10 (Fc fusion, Tested as supernatant of transiently transfected HEK293F cells) VHH: QLQLVESGGGLVQPGGSLRLSCAASGFTLDDNAIGWFRQAPGKEREGVACMRTSDGDTYYADSVKGRFTISRDNAKNTMYLQMNSLKPEDTAVYYCAAALGTYYSGFYYLAGDGMDYWGKGTLVTVSS | 
9 |  |  |  |  |  |  |  |  | 0.924 OD450 | 4.41 OD450 | 3.35 OD450 | chimeric nanobody 2-G9 (Fc fusion, Tested as supernatant of transiently transfected HEK293F cells) VHH: QLQLVESGGGLVQPGGSLRLSCAASGFLLDYYTIGWFRQAPGKELEGVSCISSSDSSPYDADSVKGRFTMSRDNANNTVYLQMNSLKPEDTAVYYCAAQRYYYCALRANVYDYWGQGTQVTVST | 
10 |  |  |  |  |  |  |  |  | 0.143 OD450 | 3.01 OD450 | 1.11 OD450 | chimeric nanobody 3-F1 (Fc fusion, Tested as supernatant of transiently transfected HEK293F cells) VHH: QVQLVESGVSLVQPGGSLRLSCAASGFTLDYYTIGWFRQAPGKELEGISCIRSSDSSPYDADSVKDRFTMSRDNANNTVYLQMNSLKPEDTADYYCAAQRYYYCSLTANVYDYWGQGTQVTVSS | 
